Data published in paper PMC8852740, “Neutralization of Typhoid Toxin by Alpaca-Derived, Single-Domain Antibodies Targeting the PltB and CdtB Subunits” (Infection and Immunity, 2021).
Where two headings read alike, the source gives them in different places.

Columns and labels:
[1] = target: T1, PltB homopentamer, biotinylated (Salmonella enterica serovar Typhi; …, UniProt Q8Z6A3, biotinylated with EZ-link NHS-Biotin (sites not given)); test: ELISA; […] (30 min, 37°C) […]; conditions: both partners purified
T1 construct: also called PltB5; pentameric PltB subunits

[2] = target: T1, PltB homopentamer, biotinylated

B1: T2G4 (VHH)
VHH: QVQLVESGGGSLRLSCAVFGRTFSGDAVGWFRQAPGKEREFVAAINWNGRSTDYADSVKGRFTISRDDTENTVYLQMNSLKPEDTAVYYCATSREDYGSSFLRGSYDYLGQGTQVTVSS
notes: also called anti-PltB VHH T2G4; source: E. coli Rosetta-gami 2(DE3)pLacI, pET32b+, purified (Ni-NTA)
binding result [1]: binds

B2: T2E11 (VHH)
VHH: QLQLVETGGGLVQPGGSLRLSCAASGFSLDYYAIGWFRQAPGKEREGVGCISSSGSTTKYADSVKGRFTISRDNAKNTVYLQMNSLKPEDTAVYYCAARNPADLNCGAYVLNGEYWGQGTQVTVPS
binding result [2]: binds

B3: T2H5 (VHH)
VHH: QVQLVETGGGLVQAGGSLRLSCTASGFTFDEYAIGWFRQAPGKEREMILCISSVGGSTYYADSVKGRFTISSDNAKNTMYLQMSSLKPEDTAKYYCAVDVTPPHSCNALDTWGQGTLVTVSS
binding result [2]: binds

B4: T2H3 (VHH)
VHH: QVQLAESGGGLVQAGGSLRLSCVASGRTFDINTMAWYRQAPGKQRDFVASSYHGGITNYADSVKGRFTMSRDNAKNTVYLQMNSLKPEDTGVYYCTWRGGGVYWGQGTQVTVSS
binding result [2]: binds

B5: T2H1 (VHH)
VHH: QVQLVESGGGLVQAGGSLRLSCAASGFTFDDYAIGWFRQAPGKEREQILCINSNRARTSYYAESIKGRFTVSVNSAKNTVYLQMNSLKPEDTAVYYCAADVTHPHSCNALDAWGQGTLVTVSS
binding result [2]: binds

B6: T2D8 (VHH)
VHH: QLQLVESGGGLVQPGGSLRLSCAASGFTLDYYAIGWFRQAPGKEREWVSCLGRSSSSTSYVADSVQGRFTISRDNAKNTVYLQMNSLKPEDTAVYYCAADLSSQISSCNALDTWGQGTLVTVSS
binding result [2]: binds

B7: T2E1 (VHH)
VHH: QVQLAESGGGFVQAGGSLRLSCVESGRSFSVFAMGWFRQAPGKERELVAAISWRGDSTYYADLVKGRFTISRDNAKNAVYLQMNSLKPEDTAVYYCAADRSDYVVTHEYDYWGQGTQVTISP
notes: also called anti-PltB VHH T2E1; source: E. coli Rosetta-gami 2(DE3)pLacI, pET32b+, purified (Ni-NTA)
binding result [1]: binds

B8: T2B12 (VHH)
VHH: QLQLVESGGGSVQAGGSLRLSCAASGFTFGDYAIAFFRQAPGKEREGVSCISTYDGSTYYGDSVKGRFTISSDNAKNTVYLQMNSLKPEDTAVYYCAADRADCGWYYPYDYWGQGTQVTVSS
binding result [2]: binds

B9: T2C7 (VHH)
VHH: QLQLAESGGGLVQAGGSLRLSCVVSGRTDSSYAVGWFRQAPGKEREFVAAIMWSGISTYYADSVKGRFTISLDNAKSTVYVQMNSLKPEDTAVYYCAAWKGATVTDDDPWGQGTQVTVSS
binding result [2]: binds

B10: T2F2 (VHH)
VHH: QVQLAESGGGLVQAGGSLRLSCVASGRTFSSYAMGWFRRAPGKEREFVASILWSDGSAAYADSVEGRFTISRDNAKNTVHLQMNSLQPEDTAVYYCAAEARGSGTRWGNEYDYWGQGTQVTVSS
notes: also called anti-PltB VHH T2F2; source: E. coli Rosetta-gami 2(DE3)pLacI, pET32b+, purified (Ni-NTA)
binding result [1]: binds

B11: T2G7 (VHH)
VHH: QVQLVESGGGSVQAGGSLRLSCAASGFTFDDYAIGWFRQAPGKEREMILCINSRAGMTSYSADSVKGRFTVSVNSAKNTAYLQMNSLKPEDTAKYYCAADVTHPHSCNALDAWGQGTLVTVSS
binding result [2]: binds

B12: T2E12 (VHH)
VHH: QVQLAESGGGLVQAGGSLRLSCAASGFTFDDYAVAWFRQAPGKAREMVLCISSSGGSSYYADFVKGRFTVPSNSAKNTVYLQMNSLKPEDTAKYICAVDATYPHSCNALDAWGQGTLVTVSS
binding result [2]: binds

B13: T2C5 (VHH)
VHH: QVQLVETGGGLVQPGGSLRLSCATSGFTFSSTTMTWVRQAPGKGLEWLSGIYSDGRTEYADSVKGRFTISRDNAKNTLYLEMNSLKPEDTAVYFCAKGLLGAERGQGTRVTVSS
binding result [2]: binds
